Laboratory results published in PMC9637154 (Communications Biology, 2022).

Target: T1, CoV2 Parental S-RBD fused with human Fc (SARS-CoV-2, UniProt P0DTC2)
T1 construct: also called Parental RBD; RBD-Fc
Assay: BLI
Conditions: both partners purified

B1: shACE2 N53A/N90A/N322A triple glycan deletant (domain or fragment)
chain: STIEEQAKTFLDKFNHEAEDLFYQSSLASWNYNTAITEENVQNMNNAGDKWSAFLKEQSTLAQMYPLQEIQALTVKLQLQALQQNGSSVLSEDKSKRLNTILNTMSTIYSTGKVCNPDNPQECLLLEPGLNEIMANSLDYNERLWAWESWRSEVGKQLRPLYEEYVVLKNEMARANHYEDYGDYWRGDYEVNGVDGYDYSRGQLIEDVEHTFEEIKPLYEHLHAYVRAKLMNAYPSYISPIGCLPAHLLGDMWGRFWTNLYSLTVPFGQKPNIDVTDAMVDQAWDAQRIFKEAEKFFVSVGLPAMTQGFWENSMLTDPGNVQKAVCHPTAWDLGKGDFRILMCTKVTMDDFLTAHHEMGHIQYDMAYAAQPFLLRNGANEGFHEAVGEIMSLSAATPKHLKSIGLLSPDFQEDNETEINFLLKQALTIVGTLPFTYMLEKWRWMVFKGEIPKDQWMKKWWEMKREIVGVVEPVPHDETYCDPASLFHVSNDYSFIRYYTRTLYQFQFQEALCQAAKHEGPLHKCDISNSTEAGQKLFNMLRLGKSEPWTLALENVVGAKNMNVRPLLNYFEPLFTWLKDQNKNSFVGWSTDWSPYADQSIK
notes: also called N53A/N90A/N322A triple deletant; N53A/N90A/N322 triple deletant
  Kd: 254 nM
